These results are taken from the RNAGym collection of RNA variant scans (doi:10.1021/acssynbio.7b00057).

To fix the notation:
B1: Pistol ribozyme (parent)
chain: GGGUCGUUGUUCCAUAAUCGCGUGGAUAUGGCACGCAAGUUUCUACCGGGCACCGUAAAUGUCCGACUGGAGCCGUUCGGGCGGCUAUAAACAGACCUCAGGCCCGAAGCGUGGCGGCACCUGCCGCCGGUGGUAAAAAAGAUCGGAAGAGCACACGUCU

In the data set the parent is B1. As to the kind of experiment: aptazyme ON/OFF ratio, guanine; higher = stronger switching; co-transcriptional cleavage with and without guanine.
As to U7A U8G G9C U10C U11A C12A C13G, the “aptazyme ON/OFF ratio” value was determined as 1.1.
Next, U7C U8C U11C C13A: 1.24.
As for U8A G9A U10C U11A C12A, the “aptazyme ON/OFF ratio” value worked out at 1.31.
As to G9U U10C U11A C12U C13G, the “aptazyme ON/OFF ratio” value came to 1.35.
Next, U7A G9C U11A C12A C13U: 1.11.
For U8C C12A C13G the value was 1.1; for U8G G9A U10G U11A C12A C13A, 1.29; for U8G U10G U11C, 1.05.
As for U7G U8A G9U U10A C12U C13G, the “aptazyme ON/OFF ratio” value was found to be 1.06.
As for U7A G9C U10A U11G C12G, the “aptazyme ON/OFF ratio” value came to 1.09.
For U7A U8G G9A U10C U11G C12U the value was 1.26; for U7C U8A G9U U10C C12A C13G, 1.15.
For the variant U8G U10C U11C C13G, the “aptazyme ON/OFF ratio” value was found to be 1.03.
Next, U7C G9C U10C U11G C12G C13G: 1.11; U8G G9U U10C C12G C13A: 1.26; U7C U8C C12G C13U: 1.15.
In the case of U7G U8G U10C U11G C13G, the “aptazyme ON/OFF ratio” value amounted to 1.21.
For the variant U7G U8C G9A U10A U11G, the “aptazyme ON/OFF ratio” value was 1.87.
U7C G9C U10A U11A C12U C13A: the “aptazyme ON/OFF ratio” value is 1.04.
Next, U7G U8G G9A C12U C13A: 1.27.
For U7A U8A G9U U10A U11C C12A, the “aptazyme ON/OFF ratio” value turned out to be 1.22.
Consider U8G G9A C13U, for which the “aptazyme ON/OFF ratio” value turned out to be 1.28.
For the variant U7A G9C U10C C12U C13A, the “aptazyme ON/OFF ratio” value amounted to 1.04.
For the variant U7A U8G G9U U10G U11A C12A C13U, the “aptazyme ON/OFF ratio” value came out at 1.48.
For the variant U7G U10C U11C C13A, the “aptazyme ON/OFF ratio” value was 1.06.
Next, U7A G9C U10A U11C C12A C13A: 1.06; U7A U8A G9U U11G C12G C13G: 1.22; U7C U8A U10C U11G C12U: 1.17.
U7C U8A G9A C12G C13U: the “aptazyme ON/OFF ratio” value was 1.17.
With U8C G9A U10G C12G C13U, the “aptazyme ON/OFF ratio” value was 1.22.
On to U8A G9C U10A U11C C13G, for which the “aptazyme ON/OFF ratio” value was 1.03.
Next, U7C U8A G9A U10C U11A C12G C13G: 1.17.
U7G U8G G9C U10C C12A: the “aptazyme ON/OFF ratio” value came to 1.33.
Next, U8A G9C U10C U11C C12A C13U: 1.03; U7G U8C G9A U10C U11A C12U C13A: 1.08; U7A G9A U10G U11G C12G C13A: 1.2.
With U7G G9C U10A U11C C12G C13A, the “aptazyme ON/OFF ratio” value was determined as 1.16.
In the case of U7A U10G U11C C12A C13U, the “aptazyme ON/OFF ratio” value was 1.2.
Consider U7A G9A U10G U11A, for which the “aptazyme ON/OFF ratio” value came to 1.06.
Take U7G G9C U10G U11A C13G: the “aptazyme ON/OFF ratio” value was determined as 1.16.
With U7C U8C G9A U11C, the “aptazyme ON/OFF ratio” value is 1.82.
As to U7A G9A U11C C13U, the “aptazyme ON/OFF ratio” value stood at 1.03.
For the variant U7C U8G G9U U11C C12U, the “aptazyme ON/OFF ratio” value came to 1.21.
As to U7A G9C U10C U11G C12G C13U, the “aptazyme ON/OFF ratio” value is 1.05.
Regarding U7A U11C C13G, the “aptazyme ON/OFF ratio” value came out at 1.07.
In the case of U7G U8A G9C U10G U11C C13A, the “aptazyme ON/OFF ratio” value came to 1.03.
On to U7A U8A G9U U10A U11G C12G C13A, for which the “aptazyme ON/OFF ratio” value turned out to be 1.23.
Take U7A U8C G9C U10A U11G C12U C13U: the “aptazyme ON/OFF ratio” value was 1.14.
For the variant U7C G9A U11A C12G C13A, the “aptazyme ON/OFF ratio” value was 1.15.
Consider U7A U8A U10A U11G C12U C13U, for which the “aptazyme ON/OFF ratio” value was found to be 1.31.
With U7A U8A G9A U10A U11A C12G C13A, the “aptazyme ON/OFF ratio” value is 1.14.
With U7C U8G G9A U11C C12G C13G, the “aptazyme ON/OFF ratio” value came out at 1.17.
Turning to U8A U11G C12A C13A, the “aptazyme ON/OFF ratio” value is 1.15.
Next, U8C U10A C12A C13A: 1.26; U7A U8C G9U U10C: 1.55.
For the variant U7C U8A G9A U11G C12A C13U, the “aptazyme ON/OFF ratio” value was determined as 1.09.
On to U7C G9A U11A, for which the “aptazyme ON/OFF ratio” value amounted to 1.33.
With U7A U10G U11G, the “aptazyme ON/OFF ratio” value came to 1.27.
Next, U7A U8C G9U U10C U11C C12A: 1.08.
In the case of U7G U8C C12G C13U, the “aptazyme ON/OFF ratio” value came out at 1.19.
In the case of U7C U8G G9C U10G U11C C12G C13A, the “aptazyme ON/OFF ratio” value came to 1.31.
As for U10A C12U C13U, the “aptazyme ON/OFF ratio” value was 1.54.
As to U7A U8C G9A U10A, the “aptazyme ON/OFF ratio” value worked out at 1.37.
For U7A U8G U10C U11G, the “aptazyme ON/OFF ratio” value was 1.29.
For U7A U8A G9U U10C C12A C13U, the “aptazyme ON/OFF ratio” value is 1.16.
Regarding U7A G9U U10G U11A C12A C13U, the “aptazyme ON/OFF ratio” value amounted to 1.18.
For the variant U7C U8C G9U U10G U11A, the “aptazyme ON/OFF ratio” value was determined as 1.32.
Turning to U7G U8C G9A U11A C12A C13U, the “aptazyme ON/OFF ratio” value amounted to 1.11.
Consider U7C G9U U11C C12U, for which the “aptazyme ON/OFF ratio” value was found to be 1.16.
Consider U7G U8A G9A U10G C12U C13G, for which the “aptazyme ON/OFF ratio” value came out at 1.35.
For U7G U8G G9C U10A U11A C12U the value was 1.07.
Consider U7A G9C U10A C12G C13A, for which the “aptazyme ON/OFF ratio” value was found to be 1.13.
In the case of U7G U8C G9A U11C C12U C13A, the “aptazyme ON/OFF ratio” value turned out to be 1.15.
On to U7C G9A U10A C12U C13U, for which the “aptazyme ON/OFF ratio” value stood at 1.25.
Take U7G U8C G9U U11G C12U: the “aptazyme ON/OFF ratio” value is 1.55.
For U8A G9C U10G C12A C13G the value was 1.03; for U7C U8G G9C U10A U11C C13A, 1.07.
As for U7C U8G G9C U11A C12G C13U, the “aptazyme ON/OFF ratio” value was determined as 1.11.
Take U10G U11C C13G: the “aptazyme ON/OFF ratio” value worked out at 1.04.
Regarding U7G U8A U10G U11G C12A C13G, the “aptazyme ON/OFF ratio” value was determined as 1.38.
Regarding U7G G9C U10G U11C C12G, the “aptazyme ON/OFF ratio” value worked out at 1.32.
Take U7C U8C G9A C12G: the “aptazyme ON/OFF ratio” value is 1.41.
In the case of U7A U8A G9A U10C U11A C12G C13G, the “aptazyme ON/OFF ratio” value turned out to be 1.11.
Regarding U8A G9C U11C C12A C13U, the “aptazyme ON/OFF ratio” value was 1.06.
